Measured values taken from patent US20140072613A1 (published 2014).

What was measured:
Experiment in all cases: cell-based or functional assay
Lck(h) activated = Lck(h) activated (human, UniProt P06239 1-509)
MAPK1(h) = MAPK1(h) (human, UniProt P28482 1-360, limits assumed)
PhKγ2(h) = target: T1, PhKγ2(h) (human, UniProt P15735 1-406)
T1 sequence (looked up): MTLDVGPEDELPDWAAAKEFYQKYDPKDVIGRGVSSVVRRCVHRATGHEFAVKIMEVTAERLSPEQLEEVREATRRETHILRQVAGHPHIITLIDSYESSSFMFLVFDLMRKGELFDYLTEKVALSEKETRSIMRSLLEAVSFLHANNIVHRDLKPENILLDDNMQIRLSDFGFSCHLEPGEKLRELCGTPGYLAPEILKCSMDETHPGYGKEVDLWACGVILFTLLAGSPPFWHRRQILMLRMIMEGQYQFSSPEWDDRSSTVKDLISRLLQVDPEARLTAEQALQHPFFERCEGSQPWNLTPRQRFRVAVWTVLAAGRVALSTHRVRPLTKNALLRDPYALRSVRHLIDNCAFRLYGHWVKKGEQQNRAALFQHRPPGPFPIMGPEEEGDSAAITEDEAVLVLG

CHK2(R145W)(h) = CHK2(R145W)(h) (human, UniProt O96017 5-543, limits assumed)
SGK3(h) = target: T2, SGK3(h) (human, UniProt Q96BR1 1-496, limits assumed)
T2 sequence (looked up): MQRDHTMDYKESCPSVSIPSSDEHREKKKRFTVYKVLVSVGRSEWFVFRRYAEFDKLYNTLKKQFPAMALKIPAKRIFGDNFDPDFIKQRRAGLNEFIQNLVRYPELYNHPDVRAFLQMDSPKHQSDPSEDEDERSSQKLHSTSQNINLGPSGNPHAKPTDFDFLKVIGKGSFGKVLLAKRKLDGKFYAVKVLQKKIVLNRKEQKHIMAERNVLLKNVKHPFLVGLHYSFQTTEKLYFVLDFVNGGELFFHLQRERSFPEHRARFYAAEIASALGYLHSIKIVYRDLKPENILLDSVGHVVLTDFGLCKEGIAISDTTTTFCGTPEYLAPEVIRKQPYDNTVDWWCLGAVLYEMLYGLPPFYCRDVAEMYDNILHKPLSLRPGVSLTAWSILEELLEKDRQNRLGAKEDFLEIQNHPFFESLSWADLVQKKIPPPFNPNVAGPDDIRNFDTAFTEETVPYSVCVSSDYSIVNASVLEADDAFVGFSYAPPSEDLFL

EGFR(T790M)(h) = EGFR(T790M)(h) (human, UniProt P00533 696-1210, limits assumed)
CDK6/cyclinD3(h) = CDK6/cyclinD3(h) (human, UniProt Q00534 1-326; P30281 1-292)
Ret(V804L)(h) = target: T3, Ret(V804L)(h) (human, UniProt P07949 658-1114, limits assumed)
T3 sequence (looked up): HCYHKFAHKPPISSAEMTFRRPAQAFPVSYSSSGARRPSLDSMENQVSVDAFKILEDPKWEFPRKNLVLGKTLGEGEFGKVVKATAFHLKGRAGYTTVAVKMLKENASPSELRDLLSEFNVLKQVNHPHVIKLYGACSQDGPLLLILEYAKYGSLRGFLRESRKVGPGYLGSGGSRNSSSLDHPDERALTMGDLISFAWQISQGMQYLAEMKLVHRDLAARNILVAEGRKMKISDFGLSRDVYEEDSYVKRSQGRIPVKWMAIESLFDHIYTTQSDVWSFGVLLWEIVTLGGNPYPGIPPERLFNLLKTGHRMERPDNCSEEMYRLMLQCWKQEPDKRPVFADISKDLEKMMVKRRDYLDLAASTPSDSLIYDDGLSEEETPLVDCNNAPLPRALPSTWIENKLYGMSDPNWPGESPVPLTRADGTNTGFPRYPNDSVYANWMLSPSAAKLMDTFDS

EphB4(h) = target: T4, EphB4(h) (human, UniProt P54760 561-987, limits assumed)
T4 sequence (looked up): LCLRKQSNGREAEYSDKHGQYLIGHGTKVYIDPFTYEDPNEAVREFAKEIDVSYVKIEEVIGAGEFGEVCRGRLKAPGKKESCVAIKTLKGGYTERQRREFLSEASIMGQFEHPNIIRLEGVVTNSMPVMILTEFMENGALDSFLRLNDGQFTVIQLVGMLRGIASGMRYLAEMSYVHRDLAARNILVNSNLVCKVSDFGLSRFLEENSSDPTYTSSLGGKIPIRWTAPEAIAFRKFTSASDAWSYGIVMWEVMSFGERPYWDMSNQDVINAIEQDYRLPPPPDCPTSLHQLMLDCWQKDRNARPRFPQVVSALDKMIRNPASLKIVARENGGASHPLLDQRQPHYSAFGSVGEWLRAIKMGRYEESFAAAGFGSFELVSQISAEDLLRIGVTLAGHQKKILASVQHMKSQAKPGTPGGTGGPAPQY

PrKX(h) = target: T5, PrKX(h) (human, UniProt P51817 1-358)
T5 sequence (looked up): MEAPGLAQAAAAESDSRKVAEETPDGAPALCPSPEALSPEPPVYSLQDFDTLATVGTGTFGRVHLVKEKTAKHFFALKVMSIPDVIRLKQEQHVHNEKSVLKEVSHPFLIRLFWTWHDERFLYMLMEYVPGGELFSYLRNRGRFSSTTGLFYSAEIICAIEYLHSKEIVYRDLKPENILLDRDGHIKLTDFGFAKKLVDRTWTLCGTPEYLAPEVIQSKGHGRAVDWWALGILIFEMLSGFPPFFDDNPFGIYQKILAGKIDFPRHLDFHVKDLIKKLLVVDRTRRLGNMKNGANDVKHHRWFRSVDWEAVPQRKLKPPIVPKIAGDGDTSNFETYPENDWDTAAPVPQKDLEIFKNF

Src(1-530)(h) = Src(1-530)(h) (human, UniProt P12931 1-530)

KAFAKLAARLYRKALARQLGVAA [MMI-0400]
% activity, 100 µM (Lck(h) activated): 216% | % activity, 100 µM (MAPK1(h)): 100% | % activity, 100 µM (PhKγ2(h)): 38% | % activity, 100 µM (CHK2(R145W)(h)): 31% | % activity, 100 µM (SGK3(h)): 8% | % activity, 100 µM (EGFR(T790M)(h)): 106% | % activity, 100 µM (CDK6/cyclinD3(h)): 85% | % activity, 100 µM (Ret(V804L)(h)): 73% | % activity, 100 µM (EphB4(h)): 28% | % activity, 100 µM (PrKX(h)): 76% | % activity, 100 µM (Src(1-530)(h)): 19%

FAKLAARLYRKALARQLGVAA [MMI-0300]
% activity, 100 µM (Lck(h) activated): 243% | % activity, 100 µM (MAPK1(h)): 107% | % activity, 100 µM (PhKγ2(h)): 46% | % activity, 100 µM (CHK2(R145W)(h)): 33% | % activity, 100 µM (SGK3(h)): 10% | % activity, 100 µM (EGFR(T790M)(h)): 100% | % activity, 100 µM (CDK6/cyclinD3(h)): 86% | % activity, 100 µM (Ret(V804L)(h)): 79% | % activity, 100 µM (EphB4(h)): 44% | % activity, 100 µM (PrKX(h)): 61% | % activity, 100 µM (Src(1-530)(h)): 23%
